{
  "source": "patent US20060240570A1",
  "about": "(AXIS SHIELD ASA, published 2006)",
  "binders": {"B1": {"name": "monoclonal antibody TC2 (antibody, V domains shown)", "VH": "QVQLKQSGPGLLQPSQSLSITCTVSGFSLTYYGVHWVRQSPVKGLEWLGVIWSGGDTDYDTTFISRLSISKDNSKGQVFFKMTSLQTDDTAIYYCARGRTYGIHFDYWGQGTTLTVSS", "VL": "DIVMSQSPSSLAVSVGEKVTMSCKSSQSLFNSRTRKNYLAWYQQKPGQSPKVLIYWASTRESGVPDRFTGSGSGTDFTLTISSVQAEDLAIYYCKQFYDLWTFGGGTKLEIKR", "notes": "Mouse IgG1, ECACC 02110742; also called mAb TC2"}},
  "key": {"[1]": {"target": "T1, human TC with the common polymorphism P259R (human, UniProt P20062 19-427)", "T1 sequence": "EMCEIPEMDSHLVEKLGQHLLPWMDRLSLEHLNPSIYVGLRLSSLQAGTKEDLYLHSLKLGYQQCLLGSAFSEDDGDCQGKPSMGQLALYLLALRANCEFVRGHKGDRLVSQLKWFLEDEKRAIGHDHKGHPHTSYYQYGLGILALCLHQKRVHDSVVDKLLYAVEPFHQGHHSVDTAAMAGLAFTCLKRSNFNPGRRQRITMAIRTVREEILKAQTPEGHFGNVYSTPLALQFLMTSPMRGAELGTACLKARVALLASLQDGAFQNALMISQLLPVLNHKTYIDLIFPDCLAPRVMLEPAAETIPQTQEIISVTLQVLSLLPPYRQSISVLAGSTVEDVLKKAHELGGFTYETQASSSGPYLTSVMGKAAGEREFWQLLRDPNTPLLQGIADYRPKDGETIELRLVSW", "test": "method not detailed"}, "[2]": {"target": "T2, human holotranscobalamin (holoTC) (human, UniProt P20062 19-427, cobalamin bound (non-covalent complex))", "T2 construct": "Recombinant human holoTC in the SPR work; also called holo-TCII", "T2 chain": "T1 sequence with R241P", "test": "SPR (Biacore); holoTC against apoTC"}, "[3]": {"target": "T3, monoclonal antibody 3C4", "T3 construct": "Mouse IgG1, ECACC 02110741; also called mAb 3C4; 3C4 (3CY)", "T3 sequence (VH, as listed by the source, chain 1 of 2)": "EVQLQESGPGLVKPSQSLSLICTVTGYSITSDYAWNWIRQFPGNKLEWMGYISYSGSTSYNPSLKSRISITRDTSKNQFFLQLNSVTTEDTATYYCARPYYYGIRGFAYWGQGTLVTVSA", "T3 sequence (VL, as listed by the source, chain 2 of 2)": "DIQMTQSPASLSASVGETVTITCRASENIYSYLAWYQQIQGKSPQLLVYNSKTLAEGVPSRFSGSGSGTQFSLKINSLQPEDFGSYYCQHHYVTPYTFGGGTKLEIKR", "test": "phage ELISA, 10^9 phagemid, wells coated with mAb 3C4", "procedure": "Microtitre plates were coated with 100 μL, 1 μg/mL mAb 3C4 or unrelated control antibody in PBS over night at 4 C. Remaining binding sites were blocked with 20 mg/mL bovine serum albumin (BSA) in PBS for 1 h. Some wells were only coated with BSA. Monoclonal packaged phagemids were added at a concentration of 10¹⁰ to 10⁸ cfu per well in PBS and incubated for 1 h. Preparations of packaged phagemids were centrifuged to remove aggregates. Wells were washed 6 times with PBS containing 0.1% Tween-20 and 3 times with PBS. For detection of bound phages 100 μL of horse-radish peroxidase (HRP) conjugated […] antibody (e.g. Pharmacia) diluted 1/5000 in PBS was added to each well and incubated for 1 h at ambient temperature. ELISA plates were washed 5 times with PBS containing 0.1%\nTween-20 and 3 times with PBS. The chromogenic substrate o-Phenyldiamine in citric acid, pH 4.0 supplemented with H₂O₂ was added and the color generating reaction was stopped after 2-5 min by addition of […]."}},
  "note": "Positions count from the first letter of the chain named. Positions of bridges follow the written chain, without caps; N, C: chain ends. No end group written: not given here.",
  "data": [
    {"binder": "B1", "values": [
      {"measurement": "binding result", "setting": "[1]", "result": "binds"},
      {"measurement": "holo/apo Specificity (-fold)", "setting": "[2]", "result": 1, "unit": "fold"}
    ]},
    {"binder": "CSGLYPWDYFMCS (disulfide 1-12 (inferred); also: displayed on phagemid)", "note": "[phagemid CS1-29p, displayed peptide CSGLYPWDYFMCS]", "values": [
      {"measurement": "ELISA (absorbance units)", "setting": "[3]", "result": 0.136, "unit": "absorbance units"}
    ]}
  ]
}
